Laboratory results from patent US20090041784A1 (Amgen, published 2009).
Like-named read-outs stand apart in the source and are kept apart here.

T1: cynomolgus glucagon receptor (cynomolgus (Macaca fascicularis), UniProt P47871 26-477 (human entry))
T1 chain: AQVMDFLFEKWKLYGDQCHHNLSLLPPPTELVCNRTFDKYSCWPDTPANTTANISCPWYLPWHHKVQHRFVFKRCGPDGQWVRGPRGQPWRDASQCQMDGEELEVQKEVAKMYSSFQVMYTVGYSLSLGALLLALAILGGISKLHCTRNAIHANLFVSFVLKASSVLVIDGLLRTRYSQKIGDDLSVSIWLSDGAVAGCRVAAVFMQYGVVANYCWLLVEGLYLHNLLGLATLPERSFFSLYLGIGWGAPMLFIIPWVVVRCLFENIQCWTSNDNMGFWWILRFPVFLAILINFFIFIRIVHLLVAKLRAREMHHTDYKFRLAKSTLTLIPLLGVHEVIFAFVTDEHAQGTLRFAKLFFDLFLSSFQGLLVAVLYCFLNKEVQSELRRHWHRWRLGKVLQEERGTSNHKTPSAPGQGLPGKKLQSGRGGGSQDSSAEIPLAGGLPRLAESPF


Tests used:
[1] = target: T2, human glucagon receptor (human, UniProt P47871 26-477); test: cell-based or functional assay
[2] = target: T2, human glucagon receptor; test: cell-based or functional assay; remark: listed apart in the source
[3] = target: T1, cynomolgus glucagon receptor; test: cell-based or functional assay
[4] = target: mouse glucagon receptor (mouse (Mus musculus), UniProt Q61606 27-485); test: cell-based or functional assay
[5] = target: rat glucagon receptor (rat (Rattus norvegicus), UniProt P30082 27-485); test: cell-based or functional assay
[6] = target: T2, human glucagon receptor; test: competition with 1 nM Alexa-labeled A-3 for human GCGR on CHO cells, FMAT
[7] = target: T3, chimera-8 (amino acids 80-477 from human GCGR, remainder from human GLP-1 receptor) (human, UniProt P43220 24-83); test: FMAT on cells expressing the chimeric receptor
T3 construct: Expressed on cells; not shown: in-frame C-terminal fluorescent protein, not identified

[8] = target: T4, chimera-10 (amino acids 80-142 from human GCGR, remainder from human GLP-1 receptor) (human, UniProt P43220 24-83; P43220 146-463); test: FMAT on cells expressing the chimeric receptor
T4 construct: Expressed on cells; not shown: in-frame C-terminal fluorescent protein, not identified

[9] = target: T5, chimera-15 (amino acids 80-119 from human GCGR, remainder from human GLP-1 receptor) (human, UniProt P43220 24-83; P43220 125-463); test: FMAT on cells expressing the chimeric receptor
T5 construct: Expressed on cells; not shown: in-frame C-terminal fluorescent protein, not identified

Binder | IC50 of inhibition of glucagon-induced cAMP production (HTRF, CHO K1 cells expressing the receptor) [1] [nM] | also measured
antibody A-11 (antibody, V domains shown) VH: QVQLVESGGGVVQPGRSLRLSCAASGSTFRSYDMHWVRQAPGKGLEWVAFISDDGSNKYYGDSVKGRLTISRDNSKNTLYLQMNSLRAEDTAVYYCARDQYDILTGYSSDAFDIWGQGTMVTVSS VL: not shown | 16.7 | –
antibody A-13 (antibody, V domains shown) VH: QVQLVESGGGVVQPGRSLRLSCAASGSTFRSYDMHWVRQAPGKGLEWVAVISYDGSNKYYGDSVKGRLTISRDNSKNTLYLQMNSLRAEDTAVYYCARDQYDILTGYSSDAFDIWGQGTMVTVSS VL: not shown | 72.6 | –
antibody A-12 (antibody, V domains shown) VH: QVQLVESGGGVVQPGRSLRLSCAASGSTFRSYDMHWVRQAPGKGLEWVAFISDDGSNKYYGDSVKGRLTISRDNSKNTLYLQMNSLRAEDTAVYYCARDQYDILTGYSSDAFDIWGQGTMVTVSS VL: not shown | 21.3 | –
antibody A-9 (antibody, V domains shown) VH: QVQLVESGGGVVQPGRSLRLSCAASGFTFSSYGMHWVRQAPGKGLEWVAVMWYDGSNKDYVDSVKGRFTISRDNSKNTLYLQMNRLRAEDTAVYYCAREKDHYDILTGYNYYYGLDVWGQGTTVTVSS VL: DIQMTQSPSSLSASVGDRVTITCRASQGIRNDLGWYQQKPGKAPKRLIYAASSLESGVPSRFSGSGSGTEFTLTISSVQPEDFVTYYCLQHNSNPLTFGGGTKVEIK | – | IC50 of inhibition of glucagon-induced cAMP production (HTRF, CHO K1 cells expressing the receptor) [2]: 7.4 nM; IC50 of inhibition of glucagon-induced cAMP production (HTRF, CHO K1 cells expressing the receptor) [3]: 26.6 nM; IC50 of inhibition of glucagon-induced cAMP production (HTRF, CHO K1 cells expressing the receptor) [4]: 4.1 nM; IC50 of inhibition of glucagon-induced cAMP production (HTRF, CHO K1 cells expressing the receptor) [5]: 9.9 nM
antibody A-20 (antibody, V domains shown, Human antibody from XenoMouse hybridoma; also called L20H20) VH: EVQLVESGGDLVQPGGSLRLSCAASGFTFSGYTLNWVRQAPGKGLEWVSNINSRSSLIYYTDSVKGRFTISRDNAKNSLYLQMNSLRDEDTAVYFCARDQYNWNYYYGMDVWGQGTTVTVSS VL: DIQMTQSPSSLSASVGDRVTITCRASQGIRNDLGWYQQKPGKAPKRLIYAASSLQSGVPSRFSGSGSGTEFTLTISNLQPEDFATYYCLQHNSYPRSFGQGTKLEIK | – | binding result [6]: binds
antibody A-5 (antibody, V domains shown) VH: QVQLVESGGGVVQPGRSLRLSCAASGFTFSTYGMHWVRQAPGKGLEWVAVISDDGSHKYSADSVKGRFTISRDNSKNTLYLQMNSLRTEDSAVYYCAREETYYDILTGYHHYYGMDVWGQGTTVTVSS VL: DIQMTQSPSSLSAFVGDRVTITCRASQGIRNDLGWYQQKPGKAPKRLLYAASSLQSGVPSRFSGSGSGSEFTLTISSLQPEDFATYYCLQHNSDPLTFGQGTRLEIK | 13.3 | –
antibody A-7 (antibody, V domains shown) VH: QVQLVESGGGVVQPGRSLRLSCAASGFTFSSYDMHWVRQAPGKGLEWVAVISHDGSDKYYADSVKGRFTISRDNSKNTLYLQMSSLRAEDTAVYYCAREKPYYDILTGYFYYYGMDVWGQGTTVTVSS VL: DIQMTQSPSSLSASVGDRVTVTCRASQDIRNDFGWYQQKPGKAPKRLIYAASSLQSGVPSRFSGSGSGTEFTLTISSLQPEDFATYYCLQQNSYPLTFGGGTKVEIK | 8.8 | –
antibody A-23 (antibody, V domains shown, Human antibody from XenoMouse hybridoma (IgG2 or IgG4 strains), purified from conditioned medium; also called L23H23) VH: EVRLVESGGGLVQPGGSLRLSCTASGFPFNRYAMNWVRQAPGKGLEWVSYIGSSSSAIYYADSVKGRFTISRDNAKNSLYLQMNSLRDEDTAVYYCARYSSGWSPLFDYWGQGTLVTVSS VL: DIQMTQSPSSVSASVGDRVTITCRASQGISSWLAWYQQKPGKAPKLLIYTASTLQSGVPSRFSGSGSGTDFTLTISSLQPEDFATYYCQQSNSFPLTFGGGTKVEIK | – | binding result [6]: binds
antibody A-17 (antibody, V domains shown, Human antibody from XenoMouse hybridoma (IgG2 or IgG4 strains), purified from conditioned medium; also called L17H17) VH: QVQLVQSGAEVKKPGASVKVSCKASGYTFTSYGISWARQAPGQGLEWMGWIGVYNGHTKYAQKFQGRVTMTTDTSTSTAYMELRSLRSDDTAIFYCARRVAVAGYFDYWGQGTLVTVSS VL: QSVLTQPPSVSGAPGQRVTISCTGSSSNIGAGYAVHWYQQLPGTAPKLLIYDNNNRPSGVPDRFSGSKSGTSASLAITGLQAEDEADYYCQSYDSSLSAIFGGGTKLTVL | – | binding result [6]: binds
antibody A-10 (antibody, V domains shown, Human antibody from XenoMouse hybridoma (IgG2 or IgG4 strains), purified from conditioned medium; also called L10H10) VH: QVQLQQSGPGLVRPSQTLSLTCAISGDSVSSNYAAWNWIRQSPSRGLEWLGRTYYRSKWYNDYAVSVRSRTTINPDTSKNQFSLQLNSVTPEDTAVYYCTREDGSGWYGAFDIWGQGTMVTVSS VL: DIQMTQSPSSLSASVGDRVTITCQASQDISKYLNWYQQKPGKAPKLLIYDASNLETGVPSRFSGSGSGTDFTFTISSLQPEDIATYYCQQYGNLPITFGQGTRLESK | – | binding result [7]: no binding; binding result [8]: no binding; binding result [9]: no binding
antibody A-6 (antibody, V domains shown) VH: QVQLVESGGGVVQPGRSLRLSCAASGFTFSSYGMHWVRQAPGKGLEWVAEIWNDGSNKYYADSVKGRFTISRDNPKNTLYLQMNSLRAEDTAVYYCAREPQYYDILTGYDNYYGMDVWGQGTTVTVSS VL: EIVLTQSPGTLSLFPGERATLSCRASQSVSSNYLAWYQQKSGQAPRLLIYGASSRATGIPDRFSGSGSGTDFTLTISRLEPEDFAVYYCQQYGNSPFTFGPGTNVDIK | 32.2 | –
antibody A-1 (antibody, V domains shown) VH: QVQLVESGGGVVQPGRSLRLSCAASGITFSSYGMHWVRQAPGKGLEWVASIWYDGSNKYYVDSVKGRFTIFRDNSKKTLYLQMNRLRAEDTAVYYCARLGGGFDYWGQGTLVTVSS VL: DIVLTQTPLSLPVTPGEPASISCRSSQSLLDRDDGDTYLDWYLQKPGQSPQLLIYTLSYRASGVPDRFSGSGSGTDFSLKISRVEAEDVGVYYCMQRIEFPFTFGPGTKVDIK | 15 | –
antibody A-8 (antibody, V domains shown) VH: QVQLAESGGGVVQPGRSLRLSCTASGITFSSYGMHWVRQAPGKGLEWVAGIWYDGRNKYYVDSVKGRFTISRDNSKKTLYLQMNSLRAEDTAVYYCARLAVAFDYWGQGTLVTVSS VL: DIVMTQTPLSLPVTPGEPASISCRSTQSLLDSDDGDTYLDWYLQKPGQSPQLLIYTLSYRASGVPDRFSGSGSGTDFTLKISRVEAEDVGVYYCMQRIEFPFTFGPGTKVDIK | 10.4 | –
antibody A-22 (antibody, V domains shown) VH: QVQLVESGGGVVQPGRSLRLSCAASGITFSSYGMHWVRQAPGKGLEWVASIWYDGSNKYYVDSVKGRFTIFRDNSKKTLYLQMNRLRAEDTAVYYCARLGGGFDYWGQGTLVTVSS VL: DIVLTQTPLSLPVTPGEPASISCRSSQSLLDRDDGDTYLDWYLQKPGQSPQLLIYTLSYRASGVPDRFSGSGSGTDFSLKISRVEAEDVGVYYCMQRIEFPFTFGPGTKVDIK | 7.2 | –
antibody A-2 (antibody, V domains shown) VH: QVQLVESGGGVVQPGRSLRLSCAASGITFSSYGMHWVRQGPGKGLEWVAFIWYDGSEKYYVDSVKGRFTISRDNSKNTLYLQMNSLRAEDTAVYYCARMGGGFDYWGQGTLVTVSS VL: DIVMTQTPLSLPVTPGEPASISCRSSQSLLDSADGDTYLDWYLQKPGQSPQLLIYTLSYRASGVPDRFSGSGSDTDFSLKISRVEAEDVGVYYCMQRIEFPFTFGPGTKVDIK | 10.1 | –
antibody A-15 (antibody, V domains shown) VH: QVQLVESGGGVVQPGKSLRLSCAVSGFIFSSYGMHWVRQAPGKGLEWVALISFDGSNKYYADSVKGRFTISRDNSKNTLYLQMNSLRAEDTAVYYCARDGYYDILTGYEDDAFDIWGQGTMVTVSS VL: not shown | 11.3 | –
antibody A-16 (antibody, V domains shown, Human antibody from XenoMouse hybridoma (IgG2 or IgG4 strains), purified from conditioned medium; also called L16H16) VH: QVQLVQSGAEVKKPGASVKVSCKASGYTFTGYYLHWVRQAPGQGLEWMGWIIPDSGGTKYAQKFQGRVTMTRDTSISTAYLELSRLRSDDTAVYYCAREGFHYDILTGSYFYYYGMDVWGQGTTVTVSS VL: not shown | – | binding result [6]: binds
antibody A-14 (antibody, V domains shown) VH: QVQLVESGGGVVQPGRSLRLSCAASGFTFSNYGMHWVRQAPGKGLEWVAVIWYDGSNKYYADSVKGRFTISRDNSKNTLYLQMNSLRAEDTAVYYCARAYYDILTDYPQYDYYYGMDVWGQGTTVTVSS VL: NFMLTQPHSVSESPGKTVTISCTRSSGSIVSNFVQWYQQRPGSSPTTVIYEDNQRPSGVPDRFSGSIDSSSNSASLTISGLKTEDEADYYCQSYDTSNQVFGGGTKLTVL | 458 | –
